According to PMC11417369, “DNA sequence and chromatin differentiate sequence-specific transcription factor binding in the human malaria parasite Plasmodium falciparum”:
Positions count from the first letter of the chain named.

T1: SIP2 D1 (Plasmodium falciparum, UniProt C6KSN9 177-235)
T1 sequence: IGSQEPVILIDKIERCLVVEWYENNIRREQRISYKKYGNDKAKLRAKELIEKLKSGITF

B1: GTGCAC_site10397 (dsDNA)
DNA 1: ATATATAATAAACAGGTGCATTGTTTTATTTTGTAT
DNA 2: ATACAAAATAAAACAATGCACCTGTTTATTATATAT
B2: GTGCAC_site10388 (dsDNA)
DNA 1: ATTATATTTATGTTGGTGCATTATACATGAAATTTA
DNA 2: TAAATTTCATGTATAATGCACCAACATAAATATAAT
B3: GTGCAC_site9511 (dsDNA)
DNA 1: TTTATATTTATGTAGGTGCATTTGTTTACAACATAT
DNA 2: ATATGTTGTAAACAAATGCACCTACATAAATATAAA
B4: GTGCAC_site10559 (dsDNA)
DNA 1: TAAATATTTTTATGGGTGCGTTCTTTAGCGCAATTT
DNA 2: AAATTGCGCTAAAGAACGCACCCATAAAAATATTTA
B5: GTGCAC_site10187 (dsDNA)
DNA 1: TTAAAAAATAACAAGGTGCAAATAGGTTTATAAAAT
DNA 2: ATTTTATAAACCTATTTGCACCTTGTTATTTTTTAA
B6: GTGCAC_site10505 (dsDNA)
DNA 1: ATTATTACTTTTTGAGTGCACATACACACAGACATA
DNA 2: TATGTCTGTGTGTATGTGCACTCAAAAAGTAATAAT
B7: GTGCAC_site10141 (dsDNA)
DNA 1: ACCCATTTTAATTTAGTGCACATTTTACCTTTATAC
DNA 2: GTATAAAGGTAAAATGTGCACTAAATTAAAATGGGT
B8: GTGCAC_site10713 (dsDNA)
DNA 1: TTTTTTTTTCAAGAGGTGCGTGTATTTTAACAAAAA
DNA 2: TTTTTGTTAAAATACACGCACCTCTTGAAAAAAAAA
B9: GTGCAC_site9720 (dsDNA)
DNA 1: TATATTAAAAAAGAGGTGCATTCGTAAGAGGTTAAA
DNA 2: TTTAACCTCTTACGAATGCACCTCTTTTTTAATATA
B10: GTGCAC_site10274 (dsDNA)
DNA 1: CAACCTTTTTTGTTGGTGCATAATTTTTTTTTCTTT
DNA 2: AAAGAAAAAAAAATTATGCACCAACAAAAAAGGTTG
B11: GTGCAC_site10569 (dsDNA)
DNA 1: TACTATTATAAATATGTGCACTTCAATAATATACTA
DNA 2: TAGTATATTATTGAAGTGCACATATTTATAATAGTA
B12: GTGCAC_site10547 (dsDNA)
DNA 1: CGTTGGTATTAAAAGGTGCAATGAAATAATATATTA
DNA 2: TAATATATTATTTCATTGCACCTTTTAATACCAACG
B13: GTGCAC_site10688 (dsDNA)
DNA 1: AGTGACACCAAAGGGGTGCAATGAAATTAAAAATAT
DNA 2: ATATTTTTAATTTCATTGCACCCCTTTGGTGTCACT
B14: GTGCAC_site10377 (dsDNA)
DNA 1: GAATAAATATTAAATGTGCACTTGAATAGATGTAAA
DNA 2: TTTACATCTATTCAAGTGCACATTTAATATTTATTC
B15: GTGCAC_site10385 (dsDNA)
DNA 1: GTGGTTGTAATGGTGGTGCATATTGTATATTATGTT
DNA 2: AACATAATATACAATATGCACCACCATTACAACCAC
B16: GTGCAC_site9937 (dsDNA)
DNA 1: TTTCACATATATATGGTGCATATTTTATGTGTAAAT
DNA 2: ATTTACACATAAAATATGCACCATATATATGTGAAA
B17: GTGCAC_site10275 (dsDNA)
DNA 1: AATATTCATATGCAGGTGCATTAATTTTTATTAATT
DNA 2: AATTAATAAAAATTAATGCACCTGCATATGAATATT
B18: GTGCAC_site10254 (dsDNA)
DNA 1: GTATATAAATAAATAGTGCATTATTAAAAATAATGT
DNA 2: ACATTATTTTTAATAATGCACTATTTATTTATATAC
B19: GTGCAC_site9729 (dsDNA)
DNA 1: GAACAAATTAAATAGGTGCATTAACATGTTCTATTT
DNA 2: AAATAGAACATGTTAATGCACCTATTTAATTTGTTC
B20: GTGCAC_site10146 (dsDNA)
DNA 1: GAGGTACATTAATTAGTGCATTAAAATTTTTATCCT
DNA 2: AGGATAAAAATTTTAATGCACTAATTAATGTACCTC
B21: GTGCAC_site9795 (dsDNA)
DNA 1: B2 DNA 1 with T3C, A25G, A30G, A32T
DNA 2: B2 DNA 2 with T5A, T7C, T12C, A34G
B22: GTGCAC_site9571 (dsDNA)
DNA 1: B2 DNA 1 with T3C, G12A, A25G
DNA 2: B2 DNA 2 with T12C, C25T, A34G
B23: GTGCAC_site9463 (dsDNA)
DNA 1: ATTAAAAAATCCATAGTGCACTACGATAGGTTCCGA
DNA 2: TCGGAACCTATCGTAGTGCACTATGGATTTTTTAAT
B24: GTGCAC_site10332 (dsDNA)
DNA 1: ATTACATTAATAAGAGTGCATTATATAAGTTTTATG
DNA 2: CATAAAACTTATATAATGCACTCTTATTAATGTAAT
B25: GTGCAC_site10279 (dsDNA)
DNA 1: GCCAATAAAGATGTGGTGCATTATATATATATATAT
DNA 2: ATATATATATATATAATGCACCACATCTTTATTGGC
B26: GTGCAC_site9836 (dsDNA)
DNA 1: ATTATATACATTTTAGTGCATTACATAATAATATAA
DNA 2: TTATATTATTATGTAATGCACTAAAATGTATATAAT
B27: GTGCAC_site10285 (dsDNA)
DNA 1: CATAAATAAGCTTTAGTGCATTATATTTAAATTTTT
DNA 2: AAAAATTTAAATATAATGCACTAAAGCTTATTTATG
B28: GTGCAC_site10002 (dsDNA)
DNA 1: TATAAGGCAATAATAGTGCACTAAGATATATAATGA
DNA 2: TCATTATATATCTTAGTGCACTATTATTGCCTTATA
B29: GTGCAC_site9419 (dsDNA)
DNA 1: ATATAAAGTATGTTAGTGCACTTTTTTTTTTTTTTT
DNA 2: AAAAAAAAAAAAAAAGTGCACTAACATACTTTATAT
B30: GTGCAC_site9557 (dsDNA)
DNA 1: TTTTTATGGACTATGGTGCATTATATATAAATGAAA
DNA 2: TTTCATTTATATATAATGCACCATAGTCCATAAAAA
B31: GTGCAC_site9418 (dsDNA)
DNA 1: ATGATATATTTAATAGTGCACTAATTAAAATTATTA
DNA 2: TAATAATTTTAATTAGTGCACTATTAAATATATCAT
B32: GTGCAC_site9835 (dsDNA)
DNA 1: ATTTAAAAGTTGGTAGTGCATTAAAAATAACAAAAA
DNA 2: TTTTTGTTATTTTTAATGCACTACCAACTTTTAAAT
B33: GTGCAC_site9493 (dsDNA)
DNA 1: TAAAATTATTAATGAGTGCATTATAAAATCTATATA
DNA 2: TATATAGATTTTATAATGCACTCATTAATAATTTTA
B34: GTGCAC_site10298 (dsDNA)
DNA 1: ATTTATTTCTTGTTAGTGCACTTTCTTTGGTAAAAT
DNA 2: ATTTTACCAAAGAAAGTGCACTAACAAGAAATAAAT
B35: GTGCAC_site9883 (dsDNA)
DNA 1: ATTAAATGCAGTTCGGTGCATTAAGGTTATGATGAA
DNA 2: TTCATCATAACCTTAATGCACCGAACTGCATTTAAT
B36: GTGCAC_site10158 (dsDNA)
DNA 1: AGGTTTTCTTAAATAGTGCATTATAACAAAAATAAA
DNA 2: TTTATTTTTGTTATAATGCACTATTTAAGAAAACCT
B37: GTGCAC_site10014 (dsDNA)
DNA 1: TTTACCTCTTCAATGGTGCAATAACTCAAAAATTTG
DNA 2: CAAATTTTTGAGTTATTGCACCATTGAAGAGGTAAA
B38: GTGCAC_site9914 (dsDNA)
DNA 1: TGGCTTTCCCTGCCGGTGCATTAACATTTTTTACAT
DNA 2: ATGTAAAAAATGTTAATGCACCGGCAGGGAAAGCCA
B39: GTGCAC_site9437 (dsDNA)
DNA 1: CATTTTCATTTTAAGGTGCATTAATATTTATTTTAA
DNA 2: TTAAAATAAATATTAATGCACCTTAAAATGAAAATG
B40: GTGCAC_site9711 (dsDNA)
DNA 1: TTAAATTATTAGAGAGTGCATTATATATATTATACA
DNA 2: TGTATAATATATATAATGCACTCTCTAATAATTTAA
B41: GTGCAC_site9879 (dsDNA)
DNA 1: TTTTTATTTTTAGTAGTGCATTAATCATATGGTCAT
DNA 2: ATGACCATATGATTAATGCACTACTAAAAATAAAAA
B42: GTGCAC_site10253 (dsDNA)
DNA 1: TTTTTTTTTTTGATGGTGCAATATATTAAATAGAAA
DNA 2: TTTCTATTTAATATATTGCACCATCAAAAAAAAAAA
B43: GTGCAC_site10763 (dsDNA)
DNA 1: AGGATAAAAGTTATGGTGCATTAACCTATTTAAATA
DNA 2: TATTTAAATAGGTTAATGCACCATAACTTTTATCCT

Molecular target: T1, SIP2 D1
Assay: gcPBM; about 25 ug protein; PBS, 1% milk, 0.2 mg/ml BSA, salmon testes DNA, 0.03% Triton X-100
Conditions: tags: N-terminal GST (pGEX-4T-1), kept; label: surface-attached array probe

First: B1
Second: B2
The binding signal of the first is higher: 10.5 ln median PBM intensity, better of two orientations for the first, 10.2 ln median PBM intensity, better of two orientations for the second.

Compared with B3, B4 is higher in binding signal: 10.3 ln median PBM intensity, better of two orientations for the first, 10.4 ln median PBM intensity, better of two orientations for the second.

First: B5
Second: B6
The binding signal of the first is lower: 10.3 ln median PBM intensity, better of two orientations for the first, 10.6 ln median PBM intensity, better of two orientations for the second.

First: B7
Second: B8
The binding signal of the first is higher: 10.5 ln median PBM intensity, better of two orientations for the first, 10.3 ln median PBM intensity, better of two orientations for the second.

Compared with B9, B10 is lower in binding signal: 10.6 ln median PBM intensity, better of two orientations for the first, 10.2 ln median PBM intensity, better of two orientations for the second.

First: B11
Second: B12
The binding signal of the first is lower: 10.4 ln median PBM intensity, better of two orientations for the first, 10.7 ln median PBM intensity, better of two orientations for the second.

Compared with B13, B14 is lower in binding signal: 10.6 ln median PBM intensity, better of two orientations for the first, 10.3 ln median PBM intensity, better of two orientations for the second.

First: B15
Second: B16
The binding signal of the first is higher: 10.7 ln median PBM intensity, better of two orientations for the first, 10.5 ln median PBM intensity, better of two orientations for the second.

Molecular target: AP2-I D3 (Plasmodium falciparum, UniProt Q8IJW6 910-1027)
Assay: as above
Conditions: tags: N-terminal GST (pGEX-4T-1), kept; label: surface-attached array probe

B17 and B18 are the same in binding signal: 12.2 ln median PBM intensity, better of two orientations for the first, 12.2 ln median PBM intensity, better of two orientations for the second.

B19 and B20 are the same in binding signal: 12.2 ln median PBM intensity, better of two orientations for the first, 12.2 ln median PBM intensity, better of two orientations for the second.

First: B21
Second: B22
The binding signal of the first is higher: 12.2 ln median PBM intensity, better of two orientations for the first, 12.1 ln median PBM intensity, better of two orientations for the second.

B23 and B24 are the same in binding signal: 12.1 ln median PBM intensity, better of two orientations for the first, 12.1 ln median PBM intensity, better of two orientations for the second.

B25 and B26 are the same in binding signal: 12.1 ln median PBM intensity, better of two orientations for the first, 12.1 ln median PBM intensity, better of two orientations for the second.

Compared with B27, B28 is higher in binding signal: 12.2 ln median PBM intensity, better of two orientations for the first, 12.3 ln median PBM intensity, better of two orientations for the second.

First: B29
Second: B30
The binding signal of the first is lower: 12.1 ln median PBM intensity, better of two orientations for the first, 12.3 ln median PBM intensity, better of two orientations for the second.

First: B31
Second: B32
The binding signal of the first is higher: 12.4 ln median PBM intensity, better of two orientations for the first, 12.2 ln median PBM intensity, better of two orientations for the second.

B33 and B34 are the same in binding signal: 12.1 ln median PBM intensity, better of two orientations for the first, 12.1 ln median PBM intensity, better of two orientations for the second.

B35 and B36 are the same in binding signal: 12.1 ln median PBM intensity, better of two orientations for the first, 12.1 ln median PBM intensity, better of two orientations for the second.

B37 and B38 are the same in binding signal: 12.3 ln median PBM intensity, better of two orientations for the first, 12.3 ln median PBM intensity, better of two orientations for the second.

B39 and B40 are the same in binding signal: 12.1 ln median PBM intensity, better of two orientations for the first, 12.1 ln median PBM intensity, better of two orientations for the second.

First: B41
Second: B42
The binding signal of the first is lower: 12.1 ln median PBM intensity, better of two orientations for the first, 12.2 ln median PBM intensity, better of two orientations for the second.

B43 was tested, and the binding signal was 12.1 ln median PBM intensity, better of two orientations.
